These results are taken from patent publication US20060218667A1.

For the assay, the target named is porcine trypsin (porcine) (UniProt P00761). In words: cell-based or functional assay.
Sequence of UniProt P00761 (P00761 9-231 limits assumed): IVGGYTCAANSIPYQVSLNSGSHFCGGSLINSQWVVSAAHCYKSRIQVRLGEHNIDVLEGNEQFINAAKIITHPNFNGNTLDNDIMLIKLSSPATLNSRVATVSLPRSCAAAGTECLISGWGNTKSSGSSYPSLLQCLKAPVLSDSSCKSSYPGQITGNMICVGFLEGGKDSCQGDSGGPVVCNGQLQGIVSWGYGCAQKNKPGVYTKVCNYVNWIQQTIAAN

With “r-Aprotinin-L (aprotinin variant with Met 52 replaced by leucine)”, the KIU/mg Protein (specific activity) (KIU/mg protein) came to 7150.

Substance “r-Aprotinin-Q (aprotinin variant with Met 52 replaced by glutamine)” yielded a KIU/mg Protein (specific activity) (KIU/mg protein) of 7220.

Take “r-Aprotinin-V (aprotinin variant with Met 52 replaced by valine)”: the KIU/mg Protein (specific activity) (KIU/mg protein) came to 7160.
